Test results from patent publication US20250066498A1 (GO THERAPEUTICS, published 2025).
Read-outs that look alike come from different tables or passages of the source. One block for each binder: values may come before it.

Assays:
[1] = target: T1, Tn-glycosylated LAMP1 on COSMC knock-out cells (human, UniProt P11279 29-417, Truncated O-glycans (Tn, GalNAc alpha1-O-Ser/Thr), because the COSMC chaperone is knocked out); assay: cell-based or functional assay
T1 sequence (looked up): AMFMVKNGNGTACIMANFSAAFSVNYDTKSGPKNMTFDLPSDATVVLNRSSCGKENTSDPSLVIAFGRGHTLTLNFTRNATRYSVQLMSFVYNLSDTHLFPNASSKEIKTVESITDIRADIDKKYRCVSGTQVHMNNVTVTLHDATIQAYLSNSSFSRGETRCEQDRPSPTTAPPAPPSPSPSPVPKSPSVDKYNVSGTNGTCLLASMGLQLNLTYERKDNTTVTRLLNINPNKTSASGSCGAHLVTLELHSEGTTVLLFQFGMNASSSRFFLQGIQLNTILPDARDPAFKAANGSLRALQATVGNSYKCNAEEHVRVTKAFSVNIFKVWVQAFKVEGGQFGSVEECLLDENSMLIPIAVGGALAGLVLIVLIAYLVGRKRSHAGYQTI

[2] = target: T1, Tn-glycosylated LAMP1 on COSMC …; assay: cell-based or functional assay; remark: listed apart in the source
[3] = target: T2, LAMP1 without Tn glycans on wild type cells (human, UniProt P11279 29-417, No Tn antigen (the wild type cells are Tn-negative)); assay: cell-based or functional assay
T2 sequence (looked up): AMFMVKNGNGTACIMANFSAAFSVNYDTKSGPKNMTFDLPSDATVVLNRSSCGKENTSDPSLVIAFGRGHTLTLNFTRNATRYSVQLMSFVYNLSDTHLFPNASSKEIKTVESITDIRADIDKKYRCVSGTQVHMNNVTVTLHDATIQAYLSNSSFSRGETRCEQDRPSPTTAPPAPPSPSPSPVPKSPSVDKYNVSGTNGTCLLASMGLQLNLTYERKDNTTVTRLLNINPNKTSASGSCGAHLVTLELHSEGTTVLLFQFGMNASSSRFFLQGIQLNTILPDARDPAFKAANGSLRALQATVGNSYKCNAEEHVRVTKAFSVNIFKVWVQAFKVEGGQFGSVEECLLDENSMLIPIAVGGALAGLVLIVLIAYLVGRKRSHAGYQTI

[4] = target: T1, Tn-glycosylated LAMP1 on COSMC …; assay: cell-based or functional assay; remark: listed apart in the source
[5] = target: T2, LAMP1 without Tn glycans on wild type …; assay: cell-based or functional assay; remark: listed apart in the source
[6] = target: T3, LAMP1-Tn peptide Biotin-CEQDRPSPTTAPPAPPSPSP (human, N-terminal biotin; O-linked GalNAc on the serine at position 7 and the threonines at positions 9 and 10); assay: BLI (Octet), LAMP1-GP on biosensor
T3 construct: Synthetic 20-mer glycopeptide made by FMOC synthesis; also called LAMP1 glycopeptide; glycosylated LAMP1 peptide
T3 peptide: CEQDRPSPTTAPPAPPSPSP

[7] = target: T3, LAMP1-Tn peptide …; assay: ELISA on plate-coated LAMP1-GP
Procedure: 96-well Corning high bind ELISA microplates plates were coated with LAMP1 peptides titrated in 0.2 M bicarbonate buffer, pH 9.4 overnight at 4° C. in concentrations ranging from 0.08 μg/ml to 10 μg/ml. BSA was used as a control/measure of background. The plates were then blocked with SuperBlock™ (Thermo Fisher) for 1 hr at room temperature. After plate washing, the humanized variants of 13C3 were incubated on the ELISA plate for 1 hour. All tested variants were expressed and purified using conventional methods. Briefly, Expi-293 cells were transiently transfected with heavy and light chain constructs, antibodies were secreted into supernatant and purified using Protein A agarose beads. The plates were then washed, and then incubated with secondary antibody (1/3000 Goat Anti-mouse IgG (H+L) HRP (Abcam 62-6520)) for 1 hour. The plate was then washed and color was developed with 1-Step™ Ultra TMB (Thermo Fisher) for 2 minutes. Color development was then stopped with 2 N Sulfuric Acid. Absorbance at 450 nm was then measured.

B1: 13G2-CART (other)
chain: DVVMTQIPLSLCVSLGDQASISCRSSQSLVHNNGNTYLHWYLQKPGQSPKLLINKVSKRFTGVPDRFSGSGSGTDFTLKISRVEAEDLGVYFCSQSTHVPRTFGGGTKLEIKGGGGSGGGGSGGGGSEVRLEESGGGLVQPGGSMKLSCVASGFTFSDAWMDWVRQSPERGLEWVAELRSKTFNHATYYAESVRGRFTISRDDSKSTVYLQMNSLRAEDTGIYYCSPNWDEGFAYWGQGTLVTVSATTTPAPRPPTPAPTIASQPLSLRPEACRPAAGGAVHTRGLDFACDFWVLVVVGGVLACYSLLVTVAFIIFWVRSKRSRLLHSDYMNMTPRRPGPTRKHYQPYAPPRDFAAYRSRVKFSRSADAPAYQQGQNQLYNELNLGRREEYDVLDKRRGRDPEMGGKPRRKNPQEGLYNELQKDKMAEAYSEIGMKGERRRGKGHDGLYQGLSTATKDTYDALHMQALPPR
- Time to kill 50% of cells (KT50), HaCAT COSMC-KO target cells, T cell ratio 10:1 [1]: 8.75 h

B2: 13C3-CART (other)
chain: DVVMTQTPLSLPVSLGDQASISCRSSQSLVHSNGNTYLHWYLQKPGQSPKLLINKVSNRFSGVPDRFSGSGSGTDFTLKISRVEAEDLGVYFCSQSTHVPRTFGGGTKLEIKGGGGSGGGGSGGGGSEVKLEDSGGGLVQPGGSMKLSCAASGFTFSDAWMDWVRHSPEKGLEWVAELRSKAFNHATYYAESVKGRFTISRDDSKSTVYLQMNSLRAEDTGIYYCTPNWDEGFAYWGQGTLVTVSATTTPAPRPPTPAPTIASQPLSLRPEACRPAAGGAVHTRGLDFACDFWVLVVVGGVLACYSLLVTVAFIIFWVRSKRSRLLHSDYMNMTPRRPGPTRKHYQPYAPPRDFAAYRSRVKFSRSADAPAYQQGQNQLYNELNLGRREEYDVLDKRRGRDPEMGGKPRRKNPQEGLYNELQKDKMAEAYSEIGMKGERRRGKGHDGLYQGLSTATKDTYDALHMQALPPR
- Time to kill 50% of cells (KT50), HaCAT COSMC-KO target cells, T cell ratio 10:1 [1]: 7.3 h

B3: 13G2-ADC (GGFG-DX8951) (other)
VH: EVRLEESGGGLVQPGGSMKLSCVASGFTFSDAWMDWVRQSPERGLEWVAELRSKTFNHATYYAESVRGRFTISRDDSKSTVYLQMNSLRAEDTGIYYCSPNWDEGFAYWGQGTLVTVSA
VL: DVVMTQIPLSLCVSLGDQASISCRSSQSLVHNNGNTYLHWYLQKPGQSPKLLINKVSKRFTGVPDRFSGSGSGTDFTLKISRVEAEDLGVYFCSQSTHVPRTFGGGTKLEIK
modifications: MC-GGFG-DX8951 covalently attached to the antibody (maleimide); site not stated; DAR ~5.6
- IC50 for cell death, T47D COSMC-KO cells [2]: 5.6 nM
- IC50 for cell death, T47D cells [3]: 4.4 nM

B4: 3C7-ADC (GGFG-DX8951) (other)
VH: EVKLEESGGGLVQPGGSMKVSCGASGFTFSDAWMDWVRQSPEKGLEWVAEMRSKAFNHAIYYAESVKGRFTISRDDSKSRVYLQMNLLRPEDTGIYYCTPNWDEGFAYWGQGTLVTVSA
VL: DVMLTQTPLSLPVSLGDQASISCRSSQSLVHSNGNTYLHWYLQKPGQSPKLLINKVSNRFFGVPDRFSGSGSGTDFTLKISRVEAEDLGVYFCSQSTHVPRTFGGGTKLEIK
modifications: MC-GGFG-DX8951 covalently attached to the antibody (maleimide); site not stated; the DAR could not be calculated
- IC50 for cell death, T47D COSMC-KO cells [2]: 4.5 nM
- IC50 for cell death, T47D cells [3]: 504 nM

B5: 13C3-ADC (GGFG-DX8951) (other)
VH: EVKLEDSGGGLVQPGGSMKLSCAASGFTFSDAWMDWVRHSPEKGLEWVAELRSKAFNHATYYAESVKGRFTISRDDSKSTVYLQMNSLRAEDTGIYYCTPNWDEGFAYWGQGTLVTVSA
VL: DVVMTQTPLSLPVSLGDQASISCRSSQSLVHSNGNTYLHWYLQKPGQSPKLLINKVSNRFSGVPDRFSGSGSGTDFTLKISRVEAEDLGVYFCSQSTHVPRTFGGGTKLEIK
modifications: MC-GGFG-DX8951 covalently attached to the antibody (maleimide); site not stated; DAR ~3.1
- IC50 for cell death, T47D COSMC-KO cells [2]: 5.6 nM
- IC50 for cell death, T47D cells [3]: 205 nM

B6: GO-13C3 mouse (vc-PAB-MMAE ADC) (other)
VH: EVKLEDSGGGLVQPGGSMKLSCAASGFTFSDAWMDWVRHSPEKGLEWVAELRSKAFNHATYYAESVKGRFTISRDDSKSTVYLQMNSLRAEDTGIYYCTPNWDEGFAYWGQGTLVTVSA
VL: DVVMTQTPLSLPVSLGDQASISCRSSQSLVHSNGNTYLHWYLQKPGQSPKLLINKVSNRFSGVPDRFSGSGSGTDFTLKISRVEAEDLGVYFCSQSTHVPRTFGGGTKLEIK
modifications: Cleavable MMAE with maleimide (vc-PAB-MMAE) covalently linked; site not stated; DAR ~4
- IC50 for cell death, T47D COSMC-KO cells [4]: 4.5 nM
- IC50 for cell death, T47D cells [5]: > 100000 nM

B7: GO-13C3-Human-v1 (vc-PAB-MMAE ADC) (other)
VH: EVQLVESGGGLVQPGGSLRLSCAASGFTFSDAWMDWVRHAPGKGLEWVAELRSKAFNHATYYAESVKGRFTISRDDSKNSVYLQMNSLKTEDTAVYYCTPNWDEGFAYWGQGTLVTVSS
VL: DVVMTQSPLSLPVTLGQPASISCRSSQSLVHSNGNTYLHWYQQRPGQSPRLLINKVSNRFSGVPDRFSGSGSGTDFTLKISRVEAEDVGVYFCSQSTHVPRTFGGGTKVEIK
modifications: Cleavable MMAE with maleimide (vc-PAB-MMAE) covalently linked; site not stated; DAR ~4
- IC50 for cell death, T47D COSMC-KO cells [4]: 5.03 nM
- IC50 for cell death, T47D cells [5]: > 100000 nM

B8: GO-13C3-Human-v2 (vc-PAB-MMAE ADC) (other)
VH: EVQLLESGGGLVQPGGSLRLSCAASGFTFSDAWMDWVRQAPGKGLEWVSELRSKAFNHATYYAESVKGRFTISRDDSKNTLYLQMNSLRAEDTAVYYCTPNWDEGFAYWGQGTLVTVSS
VL: DVVMTQSPLSLPVTLGQPASISCRSSQSLVHSNGNTYLHWYQQRPGQSPRLLINKVSNRFSGVPDRFSGSGSGTDFTLKISRVEAEDVGVYFCSQSTHVPRTFGGGTKVEIK
modifications: Cleavable MMAE with maleimide (vc-PAB-MMAE) covalently linked; site not stated; DAR ~4
- IC50 for cell death, T47D COSMC-KO cells [4]: 5.4 nM
- IC50 for cell death, T47D cells [5]: > 100000 nM

- Kd [6]: 0.85 nM
- EC50 [7]: 0.0191 µg/mL
B9: 13C3-HV-23-B/13C3 KV2-A (antibody, V domains shown)
VH: EVQLLESGGGLVQPGGSLRLSCAASGFTFSDAWMDWVRQAPGKGLEWVSELRSKAFNHATYYAESVKGRFTISRDDSKNTLYLQMNSLRAEDTAVYYCTPNWDEGFAYWGQGTLVTVSS
VL: DVVMTQSPLSLPVTLGQPASISCRSSQSLVHSNGNTYLHWYQQRPGQSPRLLINKVSNRFSGVPDRFSGSGSGTDFTLKISRVEAEDVGVYFCSQSTHVPRTFGGGTKVEIK
notes: Humanized 13C3; also called HV23B/KV2A; humanized 13C3 candidate 3

- Kd [6]: 23.5 nM
- EC50 [7]: 0.0155 µg/mL
B10: 13C3-HV-23-C/13C3 KV2-A (antibody, V domains shown)
VH: EVQLLESGGGLVQPGGSLRLSCAASGFTFSDAWMDWVRQAPGKGLEWVSEIRSSAFNHATYYAESVKGRFTISRDDSKNTLYLQMNSLRAEDTAVYYCTPNWDEGFAYWGQGTLVTVSS
VL: DVVMTQSPLSLPVTLGQPASISCRSSQSLVHSNGNTYLHWYQQRPGQSPRLLINKVSNRFSGVPDRFSGSGSGTDFTLKISRVEAEDVGVYFCSQSTHVPRTFGGGTKVEIK
notes: Humanized 13C3; also called humanized 13C3 candidate 5

- Kd [6]: 3.1 nM
- EC50 [7]: 0.0262 µg/mL
B11: 13C3-HV-72-A/13C3 KV2-A (antibody, V domains shown)
VH: EVQLVESGGGLVQPGGSLRLSCAASGFTFSDAWMDWVRHAPGKGLEWVAELRSKAFNHATYYAESVKGRFTISRDDSKNSVYLQMNSLKTEDTAVYYCTPNWDEGFAYWGQGTLVTVSS
VL: DVVMTQSPLSLPVTLGQPASISCRSSQSLVHSNGNTYLHWYQQRPGQSPRLLINKVSNRFSGVPDRFSGSGSGTDFTLKISRVEAEDVGVYFCSQSTHVPRTFGGGTKVEIK
notes: Humanized 13C3; also called HV-72A/KV2A; humanized 13C3 candidate 2

- Kd [6]: 8.2 nM
- EC50 [7]: 0.0257 µg/mL
B12: 13C3-HV-72-B/13C3 KV2-A (antibody, V domains shown)
VH: EVQLVESGGGLVQPGGSLRLSCAASGFTFSDAWMDWVRQAPGKGLEWVGELRSKAFNHATYYAESVKGRFTISRDDSKNSLYLQMNSLKTEDTAVYYCTPNWDEGFAYWGQGTLVTVSS
VL: DVVMTQSPLSLPVTLGQPASISCRSSQSLVHSNGNTYLHWYQQRPGQSPRLLINKVSNRFSGVPDRFSGSGSGTDFTLKISRVEAEDVGVYFCSQSTHVPRTFGGGTKVEIK
notes: Humanized 13C3; also called humanized 13C3 candidate 4
